Measurements reported in publication PMC7435230, “Selection of a Full Agonist Combinatorial Antibody that Rescues Leptin Deficiency In Vivo” (Advanced Science, 2020).

T1: extracellular domain of human leptin receptor with C-terminal human-Fc tag (human, UniProt P48357 22-839)
T1 chain: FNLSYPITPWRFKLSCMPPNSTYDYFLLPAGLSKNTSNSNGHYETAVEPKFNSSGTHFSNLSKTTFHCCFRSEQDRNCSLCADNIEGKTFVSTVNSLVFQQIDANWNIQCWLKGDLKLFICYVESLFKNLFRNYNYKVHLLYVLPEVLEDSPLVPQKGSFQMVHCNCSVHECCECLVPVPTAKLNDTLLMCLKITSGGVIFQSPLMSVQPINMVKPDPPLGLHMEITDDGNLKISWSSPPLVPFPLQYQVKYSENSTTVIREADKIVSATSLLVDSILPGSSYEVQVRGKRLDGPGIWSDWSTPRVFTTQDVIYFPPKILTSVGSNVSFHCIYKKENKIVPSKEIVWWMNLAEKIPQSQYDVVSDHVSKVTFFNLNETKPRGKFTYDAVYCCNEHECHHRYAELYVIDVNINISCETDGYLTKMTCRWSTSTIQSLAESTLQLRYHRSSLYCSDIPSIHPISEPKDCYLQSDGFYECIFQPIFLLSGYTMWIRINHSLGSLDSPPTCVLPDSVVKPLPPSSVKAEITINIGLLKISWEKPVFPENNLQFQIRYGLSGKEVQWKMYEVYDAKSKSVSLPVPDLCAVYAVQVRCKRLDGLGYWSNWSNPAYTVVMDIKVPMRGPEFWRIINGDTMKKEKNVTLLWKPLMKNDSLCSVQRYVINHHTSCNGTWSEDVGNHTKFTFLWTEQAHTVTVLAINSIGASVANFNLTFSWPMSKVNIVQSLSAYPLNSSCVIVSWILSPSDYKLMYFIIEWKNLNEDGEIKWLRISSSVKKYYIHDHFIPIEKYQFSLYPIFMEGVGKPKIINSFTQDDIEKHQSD


Experiments:
[1] = biological target: T2, extracellular domain of human leptin receptor with C-terminal 6xHis tag (human, UniProt P48357); experiment: SPR; Biacore T200; LepR-ECD with His tag immobilised on CM5 chip by amine coupling; leptin-Fc and scFv-Fc antibodies in PBS pH 7.4, 1:2 serial dilutions, five concentrations, as analytes; 1:1 binding model; settings: both partners purified
T2 construct: leptin receptor (LepR), human, extracellular domain; also called hLepR-ECD; hLepR-ECD-His; source: HEK293F, purified from supernatant (HisTrap FF Crude); not shown: 6xHis, C-terminal, kept

[2] = biological target: human leptin receptor tagged with eYFP, on HEK293 cells (Homo sapiens, UniProt P48357); experiment: cell-based or functional assay
[3] = biological target: T3, mLepR in mouse brain tissue sections (paraventricular nucleus of the hypothalamus) (Mus musculus, C57BL/6 (wild type, …, UniProt P48356)); experiment: immunostaining of cells or tissue; 30 um brain sections of wild type, ob/ob and db/db mice, fixed in 4% PFA; staining as for cells; paraventricular nucleus of the hypothalamus; settings: one partner purified
T3 construct: leptin receptor (LepR), mouse, endogenous in hypothalamus; Fixed tissue sections; also called LepR in tissue; source: endogenous, brain sections of wild type, ob/ob and db/db C57BL/6 mice

[4] = biological target: T1, extracellular domain of human leptin …; experiment: ELISA; competition with coated leptin, 20 nM hLepR-ECD-Fc
[5] = biological target: T4, mouse leptin receptor tagged with eYFP, on HEK293 cells (Mus musculus, UniProt P48356); experiment: immunostaining of cells or tissue; transiently transfected HEK293 cells expressing LepR-eYFP, fixed in 4% PFA; primary antibodies 5 ug/mL at 4 C overnight; Alexa Fluor 555 goat anti-human IgG; settings: one partner purified
T4 construct: leptin receptor (LepR), mouse; also called mLepR-eYFP; mLepR; source: HEK293, transiently transfected, on cells (fixed); not shown: eYFP, C-terminal, kept

[6] = biological target: T5, extracellular domain of mouse leptin receptor with C-terminal 6xHis tag (mouse, UniProt P48356); experiment: SPR; Biacore T200; LepR-ECD with His tag immobilised on CM5 chip by amine coupling; leptin-Fc and scFv-Fc antibodies in PBS pH 7.4, 1:2 serial dilutions, five concentrations, as analytes; 1:1 binding model; settings: both partners purified
T5 construct: leptin receptor (LepR), mouse, extracellular domain; also called mLepR-ECD; mLepR-ECD-His; source: HEK293F, purified from supernatant (HisTrap FF Crude); not shown: 6xHis, C-terminal, kept
T5 sequence (P48356 22-839): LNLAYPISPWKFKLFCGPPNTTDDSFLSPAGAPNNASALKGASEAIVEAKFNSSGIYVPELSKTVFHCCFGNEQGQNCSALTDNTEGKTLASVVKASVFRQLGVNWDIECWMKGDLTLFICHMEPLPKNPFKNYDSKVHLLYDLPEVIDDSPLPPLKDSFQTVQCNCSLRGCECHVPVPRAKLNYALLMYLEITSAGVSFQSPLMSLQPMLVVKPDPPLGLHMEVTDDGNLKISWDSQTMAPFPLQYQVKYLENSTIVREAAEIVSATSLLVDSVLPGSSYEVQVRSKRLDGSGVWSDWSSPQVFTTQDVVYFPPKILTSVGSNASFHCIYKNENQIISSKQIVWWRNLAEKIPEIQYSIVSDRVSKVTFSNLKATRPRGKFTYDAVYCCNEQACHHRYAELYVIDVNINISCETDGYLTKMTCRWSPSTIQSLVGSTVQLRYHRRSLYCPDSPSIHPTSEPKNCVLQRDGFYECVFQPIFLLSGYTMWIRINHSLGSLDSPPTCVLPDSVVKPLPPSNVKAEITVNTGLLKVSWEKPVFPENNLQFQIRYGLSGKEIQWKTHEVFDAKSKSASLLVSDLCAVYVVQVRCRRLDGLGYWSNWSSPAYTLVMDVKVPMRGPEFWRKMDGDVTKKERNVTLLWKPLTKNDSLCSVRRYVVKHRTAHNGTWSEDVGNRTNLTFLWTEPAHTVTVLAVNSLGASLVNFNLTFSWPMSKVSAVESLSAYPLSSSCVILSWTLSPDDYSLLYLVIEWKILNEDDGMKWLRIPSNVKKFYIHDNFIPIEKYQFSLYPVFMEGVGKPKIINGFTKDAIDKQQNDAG

T4 sequence (P48356 22-1162): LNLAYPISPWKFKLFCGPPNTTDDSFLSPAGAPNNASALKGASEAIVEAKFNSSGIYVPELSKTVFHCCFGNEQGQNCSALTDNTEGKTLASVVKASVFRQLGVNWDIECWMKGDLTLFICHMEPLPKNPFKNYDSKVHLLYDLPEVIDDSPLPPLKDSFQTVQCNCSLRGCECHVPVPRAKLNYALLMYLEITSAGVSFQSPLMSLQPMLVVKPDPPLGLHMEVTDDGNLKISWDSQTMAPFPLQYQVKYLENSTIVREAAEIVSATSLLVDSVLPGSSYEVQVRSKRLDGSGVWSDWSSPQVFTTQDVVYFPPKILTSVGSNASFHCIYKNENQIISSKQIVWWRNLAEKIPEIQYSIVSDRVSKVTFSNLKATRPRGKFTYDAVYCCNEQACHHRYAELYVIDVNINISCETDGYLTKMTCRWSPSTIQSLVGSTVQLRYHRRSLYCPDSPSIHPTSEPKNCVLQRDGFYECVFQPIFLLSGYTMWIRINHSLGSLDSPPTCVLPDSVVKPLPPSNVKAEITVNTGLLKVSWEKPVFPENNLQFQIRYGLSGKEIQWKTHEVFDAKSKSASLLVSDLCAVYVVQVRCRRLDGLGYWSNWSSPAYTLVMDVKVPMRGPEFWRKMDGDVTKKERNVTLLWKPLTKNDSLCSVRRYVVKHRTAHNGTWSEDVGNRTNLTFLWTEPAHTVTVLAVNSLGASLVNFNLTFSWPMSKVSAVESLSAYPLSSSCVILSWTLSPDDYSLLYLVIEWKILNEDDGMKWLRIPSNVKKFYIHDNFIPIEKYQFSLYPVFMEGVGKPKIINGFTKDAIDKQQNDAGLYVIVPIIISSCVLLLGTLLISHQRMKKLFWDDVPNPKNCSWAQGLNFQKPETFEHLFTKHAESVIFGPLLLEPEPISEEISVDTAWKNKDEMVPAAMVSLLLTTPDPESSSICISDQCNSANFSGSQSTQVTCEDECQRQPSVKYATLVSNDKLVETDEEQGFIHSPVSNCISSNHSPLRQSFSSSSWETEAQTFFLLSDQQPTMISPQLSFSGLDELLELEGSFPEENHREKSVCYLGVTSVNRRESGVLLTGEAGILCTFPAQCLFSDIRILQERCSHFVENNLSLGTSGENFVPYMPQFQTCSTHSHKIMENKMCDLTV
T3 sequence (P48356 22-839): as the sequence (P48356 22-839) above

Kd [1] [nM]	koff [1] [s⁻¹]	kon [1] [M⁻¹ s⁻¹]	EC50, hLepR-luciferase (SIE luciferase reporter of STAT3 phosphorylation, HEK293) [2] [nM]	binding result [3]	IC50 [4] [nM]	binding result [5]	Kd [6] [nM]	Binder
7.5	0.052	6.9e+06	3.2	no binding	40	no binding (tested: 5 ug/mL)		single-chain combinatorial antibody Ab06 (scFv-Fc) (scFv, V domains shown, identical to Ab11 except four residues in CDR3H; source: HEK293F, purified from supernatant (HiTrap Protein A)) VH: QVQLVESGGGVVQPGRSLRLSCAASGFTFSSYGMHWVRQAPGKGLEWVAVISYDGSNKYYADSVKGRFTISRDNSKNTLYLQMNSLRAEDTAVYYCAKSLRNSFDYWGQGTLVTVSS VL: EIVLTQSPGTLSLSPGERATLSCRASQSVSSNYLAWYQQKPGQAPRLLIYGASSRPTGIPDRFSGSGSGTDFTLTISRLEPEDFAVYYCQQYAASPLTFGGGTKLEIK
							200	single-chain combinatorial antibody Ab11 (scFv-Fc) (scFv, V domains shown, CDR3H holds the motif ENYF; source: HEK293F, purified from supernatant (HiTrap Protein A)) VH: QVQLVESGGGVVQPGRSLRLSCAASGFTFSSYGMHWVRQAPGKGLEWVAVISYDGSNKYYADSVKGRFTISRDNSKNTLYLQMNSLRAEDTAVYYCAKGYENYFDYWGQGTLVTVSS VL: EIVLTQSPGTLSLSPGERATLSCRASQSVSSNYLAWYQQKPGQAPRLLIYGASSRPTGIPDRFSGSGSGTDFTLTISRLEPEDFAVYYCQQYAASPLTFGGGTKLEIK
